Read-outs that look alike come from different tables or passages of the source. Blank lines part the entries; values can stand above or below the binder they belong to.
Key:
[1] = target: T1, Claudin 18.2 (CLDN18.2), expressed on CHOS-CLDN 18.2 / HEK293-CLDN 18.2 / HCC827-CLDN 18.2 cells (human, UniProt P56856-2 1-261); assay: FACS, CHOS-CLDN18.2 cells, 1.250 µg/ml
T1 construct: whole, on cells; The species is not repeated for the CHOS-CLDN 18.2 cells; also called claudin-18A2
Method: (§1) The initial concentration of the antibody was 20 μg/ml, it was diluted at 1:4, and incubated at 4° C. for 60 min.

[2] = target: T1, Claudin 18.2 (CLDN18.2), expressed on …; assay: FACS, CHOS-CLDN18.2 cells, 5 µg/ml
Method: as §1

[3] = target: T1, Claudin 18.2 (CLDN18.2), expressed on …; assay: FACS, CHOS-CLDN18.2 cells, 10 µg/ml
Method: (§2) The initial concentration of the antibody was 20 μg/mkit was diluted at 1:4, and incubated at 4° C. for 60 min.

[4] = target: T1, Claudin 18.2 (CLDN18.2), expressed on …; assay: FACS, CHOS-CLDN18.2 cells, 0.005 µg/ml
Method: as §1

[5] = target: T1, Claudin 18.2 (CLDN18.2), expressed on …; assay: FACS, CHOS-CLDN18.2 cells
Method: as §1

[6] = target: T1, Claudin 18.2 (CLDN18.2), expressed on …; assay: FACS, CHOS-CLDN18.2 cells, 0 µg/ml (background)
Method: as §1

[7] = target: T1, Claudin 18.2 (CLDN18.2), expressed on …; assay: FACS, MFI on CHOS-CLDN18.2 over MFI on CHOS-CLDN18.1, 10 µg/ml
Method: as §2

[8] = target: T1, Claudin 18.2 (CLDN18.2), expressed on …; assay: FACS, CHOS-CLDN18.2 cells, 0.020 µg/ml
Method: as §1

[9] = target: T1, Claudin 18.2 (CLDN18.2), expressed on …; assay: FACS, CHOS-CLDN18.2 cells, 0.313 µg/ml
Method: as §1

[10] = target: T1, Claudin 18.2 (CLDN18.2), expressed on …; assay: FACS, CHOS-CLDN18.2 cells, 20 µg/ml
Method: as §1

[11] = target: T1, Claudin 18.2 (CLDN18.2), expressed on …; assay: FACS, CHOS-CLDN18.2 cells, 0.078 µg/ml
Method: as §1

[12] = target: T1, Claudin 18.2 (CLDN18.2), expressed on …; assay: FACS, CHOS-CLDN18.2 cells, 0.020 µg/ml; remark: listed apart in the source
Method: as §1

[13] = target: T1, Claudin 18.2 (CLDN18.2), expressed on …; assay: FACS, CHOS-CLDN18.2 cells, 0.313 µg/ml; remark: listed apart in the source
Method: as §1

[14] = target: T1, Claudin 18.2 (CLDN18.2), expressed on …; assay: FACS, CHOS-CLDN18.2 cells, 1.250 µg/ml; remark: listed apart in the source
Method: as §1

[15] = target: T1, Claudin 18.2 (CLDN18.2), expressed on …; assay: FACS, CHOS-CLDN18.2 cells, 5 µg/ml; remark: listed apart in the source
Method: as §1

[16] = target: T1, Claudin 18.2 (CLDN18.2), expressed on …; assay: FACS, CHOS-CLDN18.2 cells, 0 µg/ml (background); remark: listed apart in the source
Method: as §1

[17] = target: T1, Claudin 18.2 (CLDN18.2), expressed on …; assay: cell-based or functional assay
[18] = target: T1, Claudin 18.2 (CLDN18.2), expressed on …; assay: FACS, CHOS-CLDN18.2 cells, 0.005 µg/ml; remark: listed apart in the source
Method: as §1

[19] = target: T1, Claudin 18.2 (CLDN18.2), expressed on …; assay: FACS, CHOS-CLDN18.2 cells; remark: listed apart in the source
Method: as §1

[20] = target: T1, Claudin 18.2 (CLDN18.2), expressed on …; assay: FACS, CHOS-CLDN18.2 cells, 20 µg/ml; remark: listed apart in the source
Method: as §1

[21] = target: T1, Claudin 18.2 (CLDN18.2), expressed on …; assay: FACS, CHOS-CLDN18.2 cells, 0.078 µg/ml; remark: listed apart in the source
Method: as §1

FACS reading [1]: 107000
FACS reading [2]: 114000
MFI [3]: 477000
FACS reading [4]: 2470
EC50 [5]: 0.573 µg/mL
max [5]: 146000
FACS reading [6]: 732
CLDN18.2/CLDN18.1 (MFI ratio) [7]: 430
FACS reading [8]: 6390
FACS reading [9]: 44800
FACS reading [10]: 146000
FACS reading [11]: 13400
B4: QP14561454 (antibody, human IgG1, kappa, V domains shown)
VH: QVQLVQSGAEVKKPGASVKVSCKASGYTFTNYFVHWVRQAPGQGLEWMGYINPYNDDTKYNEKFKGRVTMTRDTSTSTVYMELSSLRSEDTAVYYCLSLRFFAYWGQGTLVTVSS
VL: DIVMTQSPDSLAVSLGERATISCKSSQSLLNSGNQKNYLTWYQQKPGQAPKLLIYWASTRESGVPDRFSGSGSGTDFTLTISSVQAEDVAVYFCQNDYSYPLTFGGGTKVEIKR
notes: Humanized from QP201202

FACS reading [1]: 91400
FACS reading [2]: 83000
MFI [3]: 554000
FACS reading [4]: 2420
EC50 [5]: 0.425 µg/mL
max [5]: 104000
FACS reading [6]: 732
CLDN18.2/CLDN18.1 (MFI ratio) [7]: 581
FACS reading [8]: 5920
FACS reading [9]: 33300
FACS reading [10]: 104000
FACS reading [11]: 13600
B5: QP14581453 (antibody, human IgG1, kappa, V domains shown)
VH: QVQLVQSGAEVKKPGASVKVSCKASGYTFTNYFVHWVKQAPGQGLEWIGYINPYNDDTKYNEKFKGKATLTRDTSTSTVYMELSSLRSEDTAVYYCLSLRFFAYWGQGTLVTVSS
VL: DIVMTQSPDSLAVSLGERATISCKSSQSLLNSGNQKNYLTWYQQKPGQAPKLLIYWASTRESGVPDRFSGSGSGTDFTLTISSLQAEDVAVYYCQNDYSYPLTFGGGTKVEIKR
notes: Humanized from QP201202

The next lines start with the binder.

B1: QP201202 (antibody, human IgG1, V domains shown)
VH: EVQLQQSGPELVKPGASVKMSCKASGYTFTNYFVHWVKQKPGQGLEWIGYINPYNDDTKYNEKFKGKATLTSDKSSSTAYMDLSSLTSEDSAVYYCLSLRFFAYWGQGTLVTVSA
VL: DIVMTQSPSSLTVTAGEKVTMSCKSSQSLLNSGNQKNYLTWYQQKPGQAPKLLIYWASTRESGVPDRFIGSGSGTDFTLTISHVQAEDLAVYFCQNDYSYPLTFGAGTNLELK
notes: Chimeric; also called 44C6
FACS reading [1]: 92700
FACS reading [2]: 81100
MFI [3]: 439000
FACS reading [4]: 2260
EC50 [5]: 0.417 µg/mL
max [5]: 113000
FACS reading [6]: 732
CLDN18.2/CLDN18.1 (MFI ratio) [7]: 381
FACS reading [8]: 4770
FACS reading [9]: 38000
FACS reading [10]: 113000
FACS reading [11]: 12600

B2: QP14451440 (antibody, human IgG1, kappa, V domains shown)
VH: QVQLVQSGAEVKKPGASVKVSCKASGYAFSSYWMNWVRQAPGQGLEWIGQIYPGNGDTTYNGKFKGRVTMTADKSTSTVYMELSSLRSEDTAVYFCARFVKGNAMDYWGQGTLVTVSS
VL: DIVMTQSPDSLAVSLGERATISCKSSQSLLNSGNQKNYLTWYQQKPGQPPKLLIYWASTRESGVPDRFSGSGSGTDFTLTISSLQAEDVAVYYCQNAYSYPFTFGQGTKLEIKR
notes: Humanized from QP192193; also called QP14401445
FACS reading [12]: 13800
FACS reading [13]: 104000
MFI [3]: 620000
FACS reading [14]: 123000
FACS reading [15]: 139000
FACS reading [16]: 732
EC50 of killing, ADCC (PBMC, HEK293-CLDN18.2 cells) [17]: 0.0082 µg/mL
Killing percentage, ADCC (PBMC, HEK293-CLDN18.2 cells), 0 µg/ml [17]: 5.43%
Killing percentage, ADCC (PBMC, HEK293-CLDN18.2 cells), 0.0001024 µg/ml [17]: -1.11%
Killing percentage, ADCC (PBMC, HEK293-CLDN18.2 cells), 0.000512 µg/ml [17]: 10%
Killing percentage, ADCC (PBMC, HEK293-CLDN18.2 cells), 0.00256 µg/ml [17]: 10.8%
Killing percentage, ADCC (PBMC, HEK293-CLDN18.2 cells), 0.0128 µg/ml [17]: 28.5%
Killing percentage, ADCC (PBMC, HEK293-CLDN18.2 cells), 0.064 µg/ml [17]: 42.1%
Killing percentage, ADCC (PBMC, HEK293-CLDN18.2 cells), 0.32 µg/ml [17]: 43.7%
Killing percentage, ADCC (PBMC, HEK293-CLDN18.2 cells), 1.6 µg/ml [17]: 37.8%
Killing percentage, ADCC (PBMC, HEK293-CLDN18.2 cells), 8 µg/ml [17]: 42.7%
Killing percentage, ADCC (PBMC, HEK293-CLDN18.2 cells), 40 µg/ml [17]: 47.8%
CLDN18.2/CLDN18.1 (MFI ratio) [7]: 470
FACS reading [18]: 4930
EC50 [19]: 0.223 µg/mL
max [19]: 169000
FACS reading [20]: 169000
FACS reading [21]: 35400

B3: QP14581454 (antibody, human IgG1, kappa, V domains shown)
VH: QVQLVQSGAEVKKPGASVKVSCKASGYTFTNYFVHWVKQAPGQGLEWIGYINPYNDDTKYNEKFKGKATLTRDTSTSTVYMELSSLRSEDTAVYYCLSLRFFAYWGQGTLVTVSS
VL: DIVMTQSPDSLAVSLGERATISCKSSQSLLNSGNQKNYLTWYQQKPGQAPKLLIYWASTRESGVPDRFSGSGSGTDFTLTISSVQAEDVAVYFCQNDYSYPLTFGGGTKVEIKR
notes: Humanized from QP201202
FACS reading [1]: 56100
FACS reading [2]: 73700
MFI [3]: 502000
FACS reading [4]: 2370
EC50 [5]: 0.363 µg/mL
max [5]: 73700
FACS reading [6]: 732
CLDN18.2/CLDN18.1 (MFI ratio) [7]: 506
FACS reading [8]: 4470
FACS reading [9]: 30800
FACS reading [10]: 58600
FACS reading [11]: 11500

Reference: patent US20230183352A1 (published 2023)
